Results from the supplement of paper PMC9112550, “Optimization of the antimicrobial peptide Bac7 by deep mutational scanning” (BMC Biology, 2022).

Test system: Escherichia coli TOP10
Assay: shrunken log2 fold change of peptide-encoding DNA abundance (4.5 h post-induction vs induction); higher = less antimicrobial activity (less host growth inhibition)
Details: time post-induction: 4.5 h; library: site-saturation at positions 5, 18, 19, 20
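Note: peptides expressed intracellularly from a pBAD plasmid library in pooled LB shake-flask culture, induced with 0.3% L-arabinose, DNA abundance read by NGS, three biological replicates, DESeq2 with apeglm shrinkage.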

| Sequence | shrunken log2 fold change |
| --- | --- |
| RRIRSRPPRLPRPRPRPWAYPRP | -0.107 |
| RRIRCRPPRLPRPRPRPYTVPRP | -0.207 |
| RRIRDRPPRLPRPRPRPCHEPRP | -0.0135 |
| RRIRCRPPRLPRPRPRPQNDPRP | -0.505 |
| RRIRSRPPRLPRPRPRPDMTPRP | 0.154 |
| RRIRWRPPRLPRPRPRPRDGPRP | 1.12 |
| RRIRARPPRLPRPRPRPKTIPRP | 0.038 |
| RRIRERPPRLPRPRPRPVIYPRP | -0.248 |
| RRIRDRPPRLPRPRPRPTLLPRP | 0.758 |
| RRIRGRPPRLPRPRPRPGIHPRP | 0.251 |
| RRIRARPPRLPRPRPRPRLHPRP | 0.376 |
| RRIRWRPPRLPRPRPRPSFDPRP | 0.0774 |
| RRIRARPPRLPRPRPRPVPHPRP | 0.0133 |
| RRIRCRPPRLPRPRPRPLLSPRP | -0.306 |
| RRIRERPPRLPRPRPRPMMDPRP | -0.0298 |
| RRIRPRPPRLPRPRPRPTPSPRP | 0.312 |
| RRIRSRPPRLPRPRPRPLLPPRP | 0.405 |
| RRIRHRPPRLPRPRPRPHCFPRP | -0.312 |
| RRIRQRPPRLPRPRPRPPNKPRP | 0.116 |
| RRIRKRPPRLPRPRPRPHHPPRP | -0.123 |
| RRIRDRPPRLPRPRPRPIVGPRP | 0.145 |
| RRIRARPPRLPRPRPRPRCVPRP | 0.347 |
| RRIRERPPRLPRPRPRPHWMPRP | -0.157 |
| RRIRRRPPRLPRPRPRPIHIPRP | -0.579 |
| RRIRERPPRLPRPRPRPMVSPRP | -0.0769 |

| Sequence | shrunken log2 fold change |
| --- | --- |
| RRIRCRPPRLPRPRPRPMGCPRP | -0.0697 |
| RRIRARPPRLPRPRPRPVVVPRP | 0.652 |
| RRIRARPPRLPRPRPRPITKPRP | -0.0507 |
| RRIRRRPPRLPRPRPRPYIRPRP | -0.715 |
| RRIRSRPPRLPRPRPRPKNWPRP | 0.176 |
| RRIRIRPPRLPRPRPRPDDMPRP | -0.0552 |
| RRIRGRPPRLPRPRPRPGFDPRP | 0.97 |
| RRIRLRPPRLPRPRPRPVEYPRP | -0.294 |
| RRIRIRPPRLPRPRPRPTSWPRP | 0.0769 |
| RRIRIRPPRLPRPRPRPHEGPRP | -0.0113 |
| RRIRTRPPRLPRPRPRPFRVPRP | -0.108 |
| RRIRRRPPRLPRPRPRPWMTPRP | 0.0417 |
| RRIRFRPPRLPRPRPRPEFTPRP | 1.75 |
| RRIRKRPPRLPRPRPRPMKSPRP | 0.37 |
| RRIRLRPPRLPRPRPRPWPVPRP | 0.191 |
| RRIRCRPPRLPRPRPRPTCCPRP | -0.354 |
| RRIRSRPPRLPRPRPRPRSIPRP | -0.0602 |
| RRIRQRPPRLPRPRPRPLLGPRP | 0.158 |
| RRIRYRPPRLPRPRPRPTYWPRP | -0.318 |
| RRIRERPPRLPRPRPRPQLCPRP | 0.0651 |
| RRIRVRPPRLPRPRPRPGFIPRP | -0.202 |
| RRIRPRPPRLPRPRPRPATNPRP | -0.105 |
| RRIRYRPPRLPRPRPRPPEWPRP | 0.0503 |
| RRIRWRPPRLPRPRPRPLMRPRP | 0.858 |
| RRIRVRPPRLPRPRPRPAKVPRP | 0.203 |

| Sequence | shrunken log2 fold change |
| --- | --- |
| RRIRIRPPRLPRPRPRPVFDPRP | -0.371 |
| RRIRIRPPRLPRPRPRPVGPPRP | 0.0747 |
| RRIRFRPPRLPRPRPRPAENPRP | -0.134 |
| RRIRWRPPRLPRPRPRPNIHPRP | -0.392 |
| RRIRCRPPRLPRPRPRPQNHPRP | -0.612 |
| RRIRMRPPRLPRPRPRPHHLPRP | 0.0151 |
| RRIRARPPRLPRPRPRPNAVPRP | 0.0101 |
| RRIRVRPPRLPRPRPRPGMYPRP | -0.241 |
| RRIRDRPPRLPRPRPRPTWAPRP | 0.168 |
| RRIRARPPRLPRPRPRPFGTPRP | -0.194 |
| RRIRTRPPRLPRPRPRPDRLPRP | 0.0294 |
| RRIRIRPPRLPRPRPRPAQSPRP | 0.227 |
| RRIRDRPPRLPRPRPRPSGKPRP | -0.24 |
| RRIRKRPPRLPRPRPRPMPYPRP | -0.0398 |
| RRIRMRPPRLPRPRPRPEFGPRP | 1.22 |
| RRIRSRPPRLPRPRPRPCVEPRP | 0.0654 |
| RRIRVRPPRLPRPRPRPRNCPRP | -0.129 |
| RRIRARPPRLPRPRPRPKWRPRP | 0.176 |
| RRIRERPPRLPRPRPRPQNVPRP | 0.16 |
| RRIRMRPPRLPRPRPRPQKGPRP | -0.0123 |
| RRIRGRPPRLPRPRPRPSTIPRP | 0.235 |
| RRIRKRPPRLPRPRPRPHVIPRP | -0.257 |
| RRIRERPPRLPRPRPRPDMAPRP | -0.00146 |
| RRIRFRPPRLPRPRPRPVSSPRP | -0.371 |
| RRIRMRPPRLPRPRPRPRDGPRP | 2.69 |

| Sequence | shrunken log2 fold change |
| --- | --- |
| RRIRNRPPRLPRPRPRPKTQPRP | -0.0734 |
| RRIRKRPPRLPRPRPRPQMIPRP | -0.14 |
| RRIRGRPPRLPRPRPRPWILPRP | 0.112 |
| RRIRWRPPRLPRPRPRPWGVPRP | 0.132 |
| RRIRARPPRLPRPRPRPTNPPRP | 0.288 |
| RRIRFRPPRLPRPRPRPFNAPRP | -0.415 |
| RRIRYRPPRLPRPRPRPHCLPRP | -0.0757 |
| RRIRIRPPRLPRPRPRPEDYPRP | -0.0393 |
| RRIRLRPPRLPRPRPRPTDCPRP | -0.197 |
| RRIRFRPPRLPRPRPRPDQEPRP | -0.0176 |
| RRIRNRPPRLPRPRPRPIDEPRP | -0.0586 |
| RRIRNRPPRLPRPRPRPWLGPRP | 0.0222 |
| RRIRNRPPRLPRPRPRPSWSPRP | -0.0724 |
| RRIRERPPRLPRPRPRPYGEPRP | -0.0274 |
| RRIRARPPRLPRPRPRPCCSPRP | 0.0121 |
| RRIRMRPPRLPRPRPRPPLHPRP | 0.691 |
| RRIRARPPRLPRPRPRPQSKPRP | 0.0474 |
| RRIRSRPPRLPRPRPRPGEAPRP | 0.287 |
| RRIRLRPPRLPRPRPRPKKNPRP | 0.144 |
| RRIRGRPPRLPRPRPRPMFNPRP | -0.192 |
| RRIRFRPPRLPRPRPRPNSIPRP | -0.216 |
| RRIRQRPPRLPRPRPRPHVNPRP | 0.0398 |
| RRIRNRPPRLPRPRPRPVMIPRP | -0.311 |
| RRIRGRPPRLPRPRPRPDKDPRP | 0.602 |
| RRIRTRPPRLPRPRPRPREKPRP | -0.00088 |

| Sequence | shrunken log2 fold change |
| --- | --- |
| RRIRYRPPRLPRPRPRPQNLPRP | -0.0535 |
| RRIRQRPPRLPRPRPRPNRGPRP | -0.0689 |
| RRIRTRPPRLPRPRPRPWASPRP | -0.068 |
| RRIRMRPPRLPRPRPRPCNYPRP | 0.0171 |
| RRIRYRPPRLPRPRPRPPNGPRP | 3.11 |
| RRIRFRPPRLPRPRPRPEKEPRP | -0.0104 |
| RRIRVRPPRLPRPRPRPESTPRP | 0.108 |
| RRIRRRPPRLPRPRPRPGQVPRP | 0.239 |
| RRIRKRPPRLPRPRPRPNYGPRP | -0.226 |
| RRIRERPPRLPRPRPRPRCWPRP | 0.014 |
| RRIRSRPPRLPRPRPRPSIFPRP | -0.511 |
| RRIRRRPPRLPRPRPRPFQCPRP | -0.00197 |
| RRIRCRPPRLPRPRPRPWYQPRP | -0.272 |
| RRIRIRPPRLPRPRPRPGTIPRP | -0.438 |
| RRIRCRPPRLPRPRPRPQLTPRP | -0.147 |
| RRIRGRPPRLPRPRPRPVGWPRP | 1.26 |
| RRIRTRPPRLPRPRPRPQGMPRP | 0.0427 |
| RRIRGRPPRLPRPRPRPMQAPRP | 0.256 |
| RRIRDRPPRLPRPRPRPEQLPRP | 0.104 |
| RRIRPRPPRLPRPRPRPECHPRP | -0.0419 |
| RRIRMRPPRLPRPRPRPETVPRP | 2.2 |
| RRIRIRPPRLPRPRPRPIYNPRP | -1.18 |
| RRIRKRPPRLPRPRPRPIKHPRP | 0.567 |
| RRIRARPPRLPRPRPRPFEIPRP | 0.083 |
| RRIRKRPPRLPRPRPRPWLLPRP | 0.0409 |

| Sequence | shrunken log2 fold change |
| --- | --- |
| RRIRPRPPRLPRPRPRPIPVPRP | -0.402 |
| RRIRDRPPRLPRPRPRPAGGPRP | 1.11 |
| RRIRLRPPRLPRPRPRPPGYPRP | -0.119 |
| RRIRWRPPRLPRPRPRPCAGPRP | 0.0556 |
| RRIRIRPPRLPRPRPRPAAQPRP | 0.14 |
| RRIRWRPPRLPRPRPRPHGGPRP | -0.0606 |
| RRIRARPPRLPRPRPRPIPIPRP | 0.354 |
| RRIRNRPPRLPRPRPRPGYWPRP | 0.168 |
| RRIRTRPPRLPRPRPRPLCRPRP | -0.13 |
| RRIRGRPPRLPRPRPRPTRSPRP | 1.18 |
| RRIRRRPPRLPRPRPRPAMNPRP | 0.0496 |
| RRIRDRPPRLPRPRPRPKKPPRP | -0.0462 |
| RRIRFRPPRLPRPRPRPSLYPRP | -0.594 |
| RRIRKRPPRLPRPRPRPAFVPRP | 0.423 |
| RRIRVRPPRLPRPRPRPDEAPRP | -0.0574 |
| RRIRTRPPRLPRPRPRPDLEPRP | -0.00853 |
| RRIRVRPPRLPRPRPRPGGKPRP | 0.171 |
| RRIRRRPPRLPRPRPRPFGKPRP | 0.0788 |
| RRIRERPPRLPRPRPRPHISPRP | -0.3 |
| RRIRQRPPRLPRPRPRPEDDPRP | -0.14 |
| RRIRDRPPRLPRPRPRPRTGPRP | 0.0132 |
| RRIRPRPPRLPRPRPRPIAVPRP | -0.0448 |
| RRIRLRPPRLPRPRPRPLDLPRP | -0.481 |
| RRIRKRPPRLPRPRPRPPIMPRP | -0.0359 |
| RRIRMRPPRLPRPRPRPMVDPRP | 0.0184 |
